The text below walks through data of US20250101122A1 (KELONIA THERAPEUTICS, published 2025).

Residue numbers refer to the chain shown, from its start.

This experiment deals with T1, recombinant, phycoerythrin (PE) labeled, BCMA extracellular domain-FC fusion protein (BCMA-PE) (Homo sapiens (Human), UniProt Q02223 1-54, phycoerythrin (PE) label, site not stated).
T1 construct: Staining reagent; not shown: Fc part
T1 sequence: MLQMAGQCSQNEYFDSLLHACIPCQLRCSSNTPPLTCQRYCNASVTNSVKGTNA
The experiment in a line: flow cytometry; transduced PBMCs stained with PE-labelled BCMA extracellular domain-Fc (BCMA-PE). How it is done:
5×10⁵ human PBMCs were plated in each well of a 24-well plate. Cells were transduced with recombinant lentiviruses LV 1 to LV 19 at a MOI 2 based on the Jurkat functional titer, or a 0.5 mL volumetric transduction if MOI 2 was not achievable. Seven days post-transduction, PBMCs were harvested and stained with BCMA-PE and analyzed by flow cytometry to assess the percentage of anti-BCMA CAR expressing cells. FIG. 2B.
(In general: A flow cytometer gives signals particle by particle.)

B1: anti-BCMA CAR of recombinant lentivirus LV 5 (SEQ ID NO: 357) (other)
chain: QVQLVESGGGLVKPGGSLRLSCAASGFTFSDYYMSWIRQAPGKGLEWVSYISSSGSTIYYADSVKGRFTISRDNAKNSLYLQMNSLRAEDTAVYYCARDQGNYGVDVWGQGTTVTVSSGGGGSGGGGSGGGGSGGGGSDIQMTQSPSTLSASVGDRVTITCRASQSISSWLAWYQQKPGKAPKLLIYEASSLESGVPSRFSGSGSGTEFTLTISSLQPDDFATYYCQQSDSHPITFGGGTKVEIKTTTPAPRPPTPAPTIASQPLSLRPEACRPAAGGAVHTRGLDFACDIYIWAPLAGTCGVLLLSLVITLYCKRGRKKLLYIFKQPFMRPVQTTQEEDGCSCRFPEEEEGGCELRVKFSRSADAPAYQQGQNQLYNELNLGRREEYDVLDKRRGRDPEMGGKPRRKNPQEGLYNELQKDKMAEAYSEIGMKGERRRGKGHDGLYQGLSTATKDTYDALHMQALPPR
notes: Chimeric antigen receptor on the surface of transduced cells; CD8α hinge and TM, CD137, CD3ζ
For the molecule B1, the binding result was “binds”.

B2: anti-BCMA CAR of recombinant lentivirus LV 9 (SEQ ID NO: 597) (other)
chain: EVQLLESGGGLVQPGGSLRLSCAASGFTFGSEAMSWVRQAPGKERELVSAISGSGEVTYYADSVKGRFTISRDNSKNTLYLQMNSLRAEDTAVYYCQRLVEAKRHWGQGTQVTVSSTTTPAPRPPTPAPTIASQPLSLRPEACRPAAGGAVHTRGLDFACDIYIWAPLAGTCGVLLLSLVITLYCKRGRKKLLYIFKQPFMRPVQTTQEEDGCSCRFPEEEEGGCELRVKFSRSADAPAYQQGQNQLYNELNLGRREEYDVLDKRRGRDPEMGGKPRRKNPQEGLYNELQKDKMAEAYSEIGMKGERRRGKGHDGLYQGLSTATKDTYDALHMQALPPR
notes: as for B1
For B2, the binding result was “binds”.

B3: anti-BCMA CAR of recombinant lentivirus LV 15 (SEQ ID NO: 741) (other)
chain: EVQLLESGGGLVQPGGSLRLSCAASGFTFDSYTMSWYRQAPGKERELVSAISGHGDSTYYADSVKGRFTISRDNSKNTLYLQMNSLRAEDTAVYYCTRISITTEWLAGDYWGQGTQVTVSSTTTPAPRPPTPAPTIASQPLSLRPEACRPAAGGAVHTRGLDFACDIYIWAPLAGTCGVLLLSLVITLYCKRGRKKLLYIFKQPFMRPVQTTQEEDGCSCRFPEEEEGGCELRVKFSRSADAPAYQQGQNQLYNELNLGRREEYDVLDKRRGRDPEMGGKPRRKNPQEGLYNELQKDKMAEAYSEIGMKGERRRGKGHDGLYQGLSTATKDTYDALHMQALPPR
notes: as for B1
As to B3, the binding result is reported as “binds”.

B4: anti-BCMA CAR of recombinant lentivirus LV 7 (SEQ ID NO: 477) (other)
chain: DIQMTQSPSSLSASVGDRVTITCRASQSISSYLNWYQQKPGKAPKLLIYAASSLQSGVPSRFSGSGSGTDFTLTISSLQPEDFATYYCQQAHSSPITFGGGTKVEIKGGGGSGGGGSGGGGSGGGGSEVQLLESGGGLVQPGGSLRLSCAASGFTFSNYAMSWVRQAPGKGLEWVSAISGSGGSTYYADSVKGRFTISRDNSKNTLYLQMNSLRAEDTAVYYCARPGDGYYEGVYFDYWGQGTLVTVSSTTTPAPRPPTPAPTIASQPLSLRPEACRPAAGGAVHTRGLDFACDIYIWAPLAGTCGVLLLSLVITLYCKRGRKKLLYIFKQPFMRPVQTTQEEDGCSCRFPEEEEGGCELRVKFSRSADAPAYQQGQNQLYNELNLGRREEYDVLDKRRGRDPEMGGKPRRKNPQEGLYNELQKDKMAEAYSEIGMKGERRRGKGHDGLYQGLSTATKDTYDALHMQALPPR
notes: as for B1
On to B4, for which the binding result is recorded as “binds”.

B5: anti-BCMA CAR of recombinant lentivirus LV 1 (SEQ ID NO: 189) (other)
chain: EIVLTQSPATLSLSPGERATLSCRASQSVSSYLAWYQQKPGQAPRLLIYDASNRATGIPARFSGSGSGTDFTLTISSLEPEDFAVYYCQQRVVYPITFGGGTKVEIKGGGGSGGGGSGGGGSGGGGSQITLKESGPTLVKPTQTLTLTCTFSGFSLSTSGVGVGWIRQPPGKALEWLALIYWNDEKRYSPSLKSRLTITKDTSKNQVVLTMTNMDPVDTAVYYCARDEYGGFDIWGQGTMVTVSSTTTPAPRPPTPAPTIASQPLSLRPEACRPAAGGAVHTRGLDFACDIYIWAPLAGTCGVLLLSLVITLYCKRGRKKLLYIFKQPFMRPVQTTQEEDGCSCRFPEEEEGGCELRVKFSRSADAPAYQQGQNQLYNELNLGRREEYDVLDKRRGRDPEMGGKPRRKNPQEGLYNELQKDKMAEAYSEIGMKGERRRGKGHDGLYQGLSTATKDTYDALHMQALPPR
notes: Chimeric antigen receptor on the surface of transduced cells; CD8α hinge and TM, CD137 costimulatory domain, CD3ζ
As for B5, the binding result is “binds”.

B6: anti-BCMA CAR of recombinant lentivirus LV 2 (SEQ ID NO: 237) (other)
chain: B5 chain with V92F, V93D, E185D
notes: as for B1
Regarding B6, the binding result is “binds”.

B7: anti-BCMA CAR of recombinant lentivirus LV 10 (SEQ ID NO: 621) (other)
chain: EVQLLESGGGLVQPGGSLRLSCAASGFTFESEAMSWYRQAPGKERELVSVITSEGSTYYADSVKGRFTISRDNSKNTLYLQMNSLRAEDTAVYYCAHIEWETRLNWGQGTQVTVSSTTTPAPRPPTPAPTIASQPLSLRPEACRPAAGGAVHTRGLDFACDIYIWAPLAGTCGVLLLSLVITLYCKRGRKKLLYIFKQPFMRPVQTTQEEDGCSCRFPEEEEGGCELRVKFSRSADAPAYQQGQNQLYNELNLGRREEYDVLDKRRGRDPEMGGKPRRKNPQEGLYNELQKDKMAEAYSEIGMKGERRRGKGHDGLYQGLSTATKDTYDALHMQALPPR
notes: as for B1
With B7, the binding result is “binds”.

B8: anti-BCMA CAR of recombinant lentivirus LV 18 (SEQ ID NO: 837) (other)
chain: EVQLLESGGGLVQPGGSLRLSCAASGFTFSSEGMSWVRQAPGKERELVSAISGSGDHTYYADSVRGRFTISRDNSKNTLYLQMNSLRAEDTAVYYCNALEGGPTTAIQPGGPDYWGQGTQVTVSSTTTPAPRPPTPAPTIASQPLSLRPEACRPAAGGAVHTRGLDFACDIYIWAPLAGTCGVLLLSLVITLYCKRGRKKLLYIFKQPFMRPVQTTQEEDGCSCRFPEEEEGGCELRVKFSRSADAPAYQQGQNQLYNELNLGRREEYDVLDKRRGRDPEMGGKPRRKNPQEGLYNELQKDKMAEAYSEIGMKGERRRGKGHDGLYQGLSTATKDTYDALHMQALPPR
notes: as for B1
Take B8: the binding result is “binds”.

B9: anti-BCMA CAR of recombinant lentivirus LV 12 (SEQ ID NO: 669) (other)
chain: EVQLLESGGGLVQPGGSLRLSCAASGFTFEDYAMSWFRQAPGKEREGVSAISGKGGSTYYADSVKGRFTISRDNSKNTLYLQMNSLRAEDTAVYYCAVLDEEAGAEGGYWGQGTQVTVSSTTTPAPRPPTPAPTIASQPLSLRPEACRPAAGGAVHTRGLDFACDIYIWAPLAGTCGVLLLSLVITLYCKRGRKKLLYIFKQPFMRPVQTTQEEDGCSCRFPEEEEGGCELRVKFSRSADAPAYQQGQNQLYNELNLGRREEYDVLDKRRGRDPEMGGKPRRKNPQEGLYNELQKDKMAEAYSEIGMKGERRRGKGHDGLYQGLSTATKDTYDALHMQALPPR
notes: as for B1
For B9, the binding result is “binds”.

B10: anti-BCMA CAR of recombinant lentivirus LV 13 (SEQ ID NO: 693) (other)
chain: B9 chain with E30D, D31R, G53T, K54S, G56D
notes: as for B1
In the case of B10, the binding result was “binds”.

B11: anti-BCMA CAR of recombinant lentivirus LV 11 (SEQ ID NO: 645) (other)
chain: EVQLLESGGGLVQPGGSLRLSCAASGFTFDEYTMHWFRQAPGKEREFVSAISGGGSETYYADSVKGRFTISRDNSKNTLYLQMNSLRAEDTAVYYCAAGGEEAGVGYWGQGTQVTVSSTTTPAPRPPTPAPTIASQPLSLRPEACRPAAGGAVHTRGLDFACDIYIWAPLAGTCGVLLLSLVITLYCKRGRKKLLYIFKQPFMRPVQTTQEEDGCSCRFPEEEEGGCELRVKFSRSADAPAYQQGQNQLYNELNLGRREEYDVLDKRRGRDPEMGGKPRRKNPQEGLYNELQKDKMAEAYSEIGMKGERRRGKGHDGLYQGLSTATKDTYDALHMQALPPR
notes: as for B1
In the case of B11, the binding result is “binds”.

B12: anti-BCMA CAR of recombinant lentivirus LV 8 (SEQ ID NO: 525) (other)
chain: DIQMTQSPSSLSASVGDRVTITCQASQDIANYLNWYQQKPGKAPKLLIYDASNLETGVPSRFSGSGSGTDFTFTISSLQPEDIATYYCQQHFNLPLTFGGGTKVEIKGGGGSGGGGSGGGGSGGGGSQITLKESGPTLVKPTQTLTLTCTFSGFSLSTSGVGVGWIRQPPGKALEWLALIYWNDEKRYSPSLKSRLTITKDTSKNQVVLTMTNMDPVDTAVYYCAREGSHDYKSSNWFDPWGQGTLVTVSSTTTPAPRPPTPAPTIASQPLSLRPEACRPAAGGAVHTRGLDFACDIYIWAPLAGTCGVLLLSLVITLYCKRGRKKLLYIFKQPFMRPVQTTQEEDGCSCRFPEEEEGGCELRVKFSRSADAPAYQQGQNQLYNELNLGRREEYDVLDKRRGRDPEMGGKPRRKNPQEGLYNELQKDKMAEAYSEIGMKGERRRGKGHDGLYQGLSTATKDTYDALHMQALPPR
notes: as for B1
For the molecule B12, the binding result was “binds”.

B13: anti-BCMA CAR of recombinant lentivirus LV 3 (SEQ ID NO: 261) (other)
chain: QVQLVESGGGVVQPGRSLRLSCAASGFTFSSYGMHWVRQAPGKGLEWVAVISYEGSNKYYADSVKGRFTISRDNSKNTLYLQMNSLRAEDTAVYYCARELGDGMDVWGQGTTVTVSSGGGGSGGGGSGGGGSGGGGSEIVLTQSPATLSLSPGERATLSCRASQSVSSYLAWFQQKPGQAPRLLIYDASNRATGIPARFSGSGSGTDFTLTISSLEPEDFAVYYCQQRVDLWTFGGGTKVEIKTTTPAPRPPTPAPTIASQPLSLRPEACRPAAGGAVHTRGLDFACDIYIWAPLAGTCGVLLLSLVITLYCKRGRKKLLYIFKQPFMRPVQTTQEEDGCSCRFPEEEEGGCELRVKFSRSADAPAYQQGQNQLYNELNLGRREEYDVLDKRRGRDPEMGGKPRRKNPQEGLYNELQKDKMAEAYSEIGMKGERRRGKGHDGLYQGLSTATKDTYDALHMQALPPR
notes: as for B1
As to B13, the binding result is “binds”.
